Values quoted from earlier work, collected in publication PMC8291714.

Target: N protein (N-RNA ring) (Rabies lyssavirus) (UniProt Q8JXF6)
UniProt Q8JXF6, sequence (Q8JXF6 whole entry): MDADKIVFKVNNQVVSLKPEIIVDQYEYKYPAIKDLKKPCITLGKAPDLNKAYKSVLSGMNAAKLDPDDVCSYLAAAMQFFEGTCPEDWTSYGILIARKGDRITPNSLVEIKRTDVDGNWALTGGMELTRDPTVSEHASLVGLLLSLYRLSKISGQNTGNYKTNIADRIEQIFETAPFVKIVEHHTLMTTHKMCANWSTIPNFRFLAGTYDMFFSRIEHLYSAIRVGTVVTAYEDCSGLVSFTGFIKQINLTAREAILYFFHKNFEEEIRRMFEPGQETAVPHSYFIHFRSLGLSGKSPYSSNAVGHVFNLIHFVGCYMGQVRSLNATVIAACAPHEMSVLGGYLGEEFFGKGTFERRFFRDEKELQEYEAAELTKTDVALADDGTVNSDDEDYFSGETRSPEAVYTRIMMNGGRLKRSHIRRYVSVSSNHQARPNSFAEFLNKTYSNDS

For P protein CTD (from UniProt P22363), the Kd is given as 160 nM.
